Data reported in patent US7678885 (GENETICS INSTITUTE, dated 2010).
One block for each binder: values may come before it.

B3: BMP-6 subunit beginning with amino acid #375 (CHO-produced) (ligand)
chain: SASSRRRQQSRNRSTQSQDVARVSSASDYNSSELKTACRKHELYVSFQDLGWQDWIIAPKGYAANYCDGECSFPLNAHMNATNHAIVQTLVHLMNPEYVPKPCCAPTKLNAISVLYFDDNSNVILKKYRNMVVRACGCH
notes: Single subunit

How the values were obtained:
[1] = target: B3; assay: protein sequencing of purified CHO BMP-2/6 heterodimer subunits
Protocol: (§1) The BMP-2/6 heterodimer subunits are analyzed on a protein sequenator.

[2] = target: the molecule itself; assay: refolding of E. coli monomer, SDS-PAGE with and without reduction
[3] = target: the molecule itself; assay: purification of BMP-2/6 from CHO 12C07 medium, gel analysis
Protocol: After the completion of sample loading, the column was washed with 10 bed volumes of the equilibration buffer. Bound BMP-2/7 or BMP-2/6 heterodimers were eluted with 5 bed volumes of 100 mM potassium phosphate, 6M urea, pH 7.4. This eluate was loaded directly onto a Vydac C_4 reverse-phase HPLC column equilibrated in water –0.1% TFA. BMP-2/7 or BMP-2/6 heterodimers were eluted with a gradient of 30-50% acetonitrile in water—0.1% trifluoroacetic acid.
Fractions containing BMPs are identified by SDS-PAGE in the presence or absence of reductant. The identity of the BMPs with respect to the heterodimers vs. homodimers is determined by 2D-PAGE (+/−reductant). Fractions with heterodimers gave bands which reduce to two spots. Bands from homodimer fractions reduce to a single spot for each BMP species.

[4] = target: T1, BMP-2 subunit beginning with amino acid #249 (CHO-produced) (human, UniProt P12643 249-396); assay: protein sequencing of purified CHO BMP-2/6 heterodimer subunits
T1 construct: Single subunit; also called BMP-2 subunit #249 Ser-Lev-His
T1 sequence: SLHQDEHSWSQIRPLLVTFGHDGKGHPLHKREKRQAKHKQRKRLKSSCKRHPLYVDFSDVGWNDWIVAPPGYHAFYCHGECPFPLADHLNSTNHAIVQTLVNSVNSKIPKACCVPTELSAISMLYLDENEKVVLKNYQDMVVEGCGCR
Protocol: as §1

- binding result [1]: binds
B1: BMP-2 subunit beginning with amino acid #283 (CHO-produced) (ligand)
chain: QAKHKQRKRLKSSCKRHPLYVDFSDVGWNDWIVAPPGYHAFYCHGECPFPLADHLNSTNHAIVQTLVNSVNSKIPKACCVPTELSAISMLYLDENEKVVLKNYQDMVVEGCGCR
notes: also called mature BMP-2 subunit

B2: E. coli BMP-2 monomer (mature portion of BMP-2 from plasmid pALBP2-781) (ligand)
chain: MQAKHKQRKRLKSSCKRHPLYVDFSDVGWNDWIVAPPGYHAFYCHGECPFPLADHLNSTNHAIVQTLVNSVNSKIPKACCVPTELSAISMLYLDENEKVVLKNYQDMVVEGCGCR
- binding result [2]: binds

Binder: B3
- binding result [3]: binds
- binding result [4]: binds
